The term Km denotes the concentration of substrate that gives half-maximal velocity. Usually kcat stands for the number of substrate molecules converted per active site and unit of time at saturation.

Data set [1] relates to glutathione reductase (GR). Briefly: stopped-flow, NAD. The format is biochemical. As to conditions: read-out: apparent KM; 180 µM NAD(P)H, 10 nM enzyme, 50 to 250 µM HOSCN, 100 mM sodium phosphate pH 7.4, aerobic.
Substrate in the data set “purified protein”: O=S(=O)(O)CCNCl
The data set is described as follows: purified protein. The following applies: 100 µM NADH, 10 µM enzyme, 20 mM HEPES, 100 mM NaCl pH 7, anaerobic.

On to `N#CSO` [HOSCN, hypothiocyanous acid], for which the Km in data set [1] was found to be 81 µM.

B1: RclA (Escherichia coli K-12) (protein)
chain: MNKYQAVIIGFGKAGKTLAVTLAKAGWRVALIEQSNAMYGGTCINIGCIPTKTLVHDAQQHTDFVRAIQRKNEVVNFLRNKNFHNLADMPNIDVIDGQAEFINNHSLRVHRPEGNLEIHGEKIFINTGAQTVVPPIPGITTTPGVYDSTGLLNLKELPGHLGILGGGYIGVEFASMFANFGSKVTILEAASLFLPREDRDIADNIATILRDQGVDIILNAHVERISHHENQVQVHSEHAQLAVDALLIASGRQPATASLHPENAGIAVNERGAIVVDKRLHTTADNIWAMGDVTGGLQFTYISLDDYRIVRDELLGEGKRSTDDRKNVPYSVFMTPPLSRVGMTEEQARESGADIQVVTLPVAAIPRARVMNDTRGVLKAIVDNKTQRMLGASLLCVDSHEMINIVKMVMDAGLPYSILRDQIFTHPSMSESLNDLFSLVK
Regarding B1, in “purified protein”, the Km came out at 12700 µM and the kcat was 33 s⁻¹.

The values are drawn from article PMC9335216 (Proceedings of the National Academy of Sciences of the …, 2022).
